B1: TPR t1 (parent)
chain: GACCAAUCUGCCCUCAGAGCUCGAGAACAUCUUCGGAUGCAGAGGAGGCAGGCUUCGGUGGCGCGAUAGCGCCAACGUCCUCAACCUCCAAUGCAUCCCACCACAUGAUGAUGCCUGAAGAGCCUUGGUUUUUUG

Variants of: B1
Experiment: polymerase ribozyme fitness, log enrichment relative to wild type (log ratio); higher = more active; in vitro selection for triplet polymerase activity
Summary of the method: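 Fitness measures genotype enrichment against wild-type enrichment on a logarithmic scale, with inverse-variance-weighted averaging of replicates. The logarithm is base 2, and genotypes were kept only with ≥10 input reads and ≥1 read per output in Illumina sequencing. The sequenced libraries came from one triplicate in vitro selection round, including frozen incubation at −7 °C, of PCR-built, transcribed mutant libraries of each subunit of a heterodimeric triplet polymerase ribozyme.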

Question: Which “polymerase ribozyme fitness (log ratio)” value does the source give for G44U A46U G117U here?
Answer: -4.65

Question: For G45U C64U A121G G135A, which “polymerase ribozyme fitness (log ratio)” value is on record?
Answer: 0.974

Question: For G45U G77U U132C, which “polymerase ribozyme fitness (log ratio)” value is on record?
Answer: -1.59

Question: Which “polymerase ribozyme fitness (log ratio)” value does the source give for A46C C101G G120A here?
Answer: -2

Question: For G45U C56A, which “polymerase ribozyme fitness (log ratio)” value is on record?
Answer: -2.01

Question: Which “polymerase ribozyme fitness (log ratio)” value does the source give for A46C G60U here?
Answer: -0.736

Question: For A46G A95U A105U U109A, which “polymerase ribozyme fitness (log ratio)” value is on record?
Answer: -6.27

Question: With G44C C86U U96G U129C as the variant, how does the “polymerase ribozyme fitness (log ratio)” value read?
Answer: -2.63

Question: For A43U C124A, which “polymerase ribozyme fitness (log ratio)” value is on record?
Answer: 0.127

Question: With G44C G61A A66G A75G as the variant, how does the “polymerase ribozyme fitness (log ratio)” value read?
Answer: -2.01

Question: For G45A U130A, which “polymerase ribozyme fitness (log ratio)” value is on record?
Answer: -1.49

Question: For G45U C124A, which “polymerase ribozyme fitness (log ratio)” value is on record?
Answer: 0.716

Question: For G45U A84G U96G C101G, which “polymerase ribozyme fitness (log ratio)” value is on record?
Answer: -4.84

Question: With G44A C56A as the variant, how does the “polymerase ribozyme fitness (log ratio)” value read?
Answer: -1.33

Question: For G44A C56U, which “polymerase ribozyme fitness (log ratio)” value is on record?
Answer: -0.878

Question: With G44U G63U as the variant, how does the “polymerase ribozyme fitness (log ratio)” value read?
Answer: -2.03

Question: For G44U C114G, which “polymerase ribozyme fitness (log ratio)” value is on record?
Answer: -3.66

Question: Which “polymerase ribozyme fitness (log ratio)” value does the source give for A46C G63U U106A G117A here?
Answer: -3.84

Question: For A46G A90C C99U U106C, which “polymerase ribozyme fitness (log ratio)” value is on record?
Answer: -4.81

Question: Which “polymerase ribozyme fitness (log ratio)” value does the source give for A46G A50C C85U A90G here?
Answer: -1.11

Question: For G44U C72U, which “polymerase ribozyme fitness (log ratio)” value is on record?
Answer: -1.36

Question: For G45A C64G A68C C104A G117U, which “polymerase ribozyme fitness (log ratio)” value is on record?
Answer: -6.22

Question: For G44C C89U, which “polymerase ribozyme fitness (log ratio)” value is on record?
Answer: -1.15

Question: With G44C C70A U96A as the variant, how does the “polymerase ribozyme fitness (log ratio)” value read?
Answer: -3.81

Question: For G45C U55C A75U A95G U126A U129A, which “polymerase ribozyme fitness (log ratio)” value is on record?
Answer: -4.26

Question: For A43U C76A, which “polymerase ribozyme fitness (log ratio)” value is on record?
Answer: -2.98

Question: With G44A A105G as the variant, how does the “polymerase ribozyme fitness (log ratio)” value read?
Answer: -4.47

Question: Which “polymerase ribozyme fitness (log ratio)” value does the source give for A43U C53A C62A G93A U112C G128U here?
Answer: -4.57

Question: Which “polymerase ribozyme fitness (log ratio)” value does the source give for G45C C53A G120A U129G here?
Answer: -1.07

Question: With G45A U59A A83C C114G G122C as the variant, how does the “polymerase ribozyme fitness (log ratio)” value read?
Answer: -4.2

Question: Which “polymerase ribozyme fitness (log ratio)” value does the source give for G44U G51C here?
Answer: -5.32

Question: For G44U C49A A50C C72A, which “polymerase ribozyme fitness (log ratio)” value is on record?
Answer: -1.95

Question: With A46C G48A G51A U87G C123A as the variant, how does the “polymerase ribozyme fitness (log ratio)” value read?
Answer: -1.77

Question: Which “polymerase ribozyme fitness (log ratio)” value does the source give for A46C G71U U87A C123U U132A here?
Answer: 0.774

Question: For G45U G57C G69U G110A U125A, which “polymerase ribozyme fitness (log ratio)” value is on record?
Answer: -0.972

Question: With G45A G51U as the variant, how does the “polymerase ribozyme fitness (log ratio)” value read?
Answer: -4.34

Question: For G45A G51A, which “polymerase ribozyme fitness (log ratio)” value is on record?
Answer: -3.66

Question: For A46C G69U G135U, which “polymerase ribozyme fitness (log ratio)” value is on record?
Answer: -0.586

Question: For G45C A119G U131G U132A, which “polymerase ribozyme fitness (log ratio)” value is on record?
Answer: 0.0169

Question: For G44A G60A A74U, which “polymerase ribozyme fitness (log ratio)” value is on record?
Answer: -0.926

Question: For G44U U112A, which “polymerase ribozyme fitness (log ratio)” value is on record?
Answer: 0.425

Question: Which “polymerase ribozyme fitness (log ratio)” value does the source give for G45A G52C here?
Answer: -1.37

Question: For G45U A90C A105G U106A U130G U131A, which “polymerase ribozyme fitness (log ratio)” value is on record?
Answer: -2.74

Question: With G45U A111U as the variant, how does the “polymerase ribozyme fitness (log ratio)” value read?
Answer: -4.37

Question: Which “polymerase ribozyme fitness (log ratio)” value does the source give for A43G U112C G122U here?
Answer: -0.183

Question: For G45C C89U U133A, which “polymerase ribozyme fitness (log ratio)” value is on record?
Answer: -1.58

Question: With G44U C56G G61U C89A C94G G122A as the variant, how does the “polymerase ribozyme fitness (log ratio)” value read?
Answer: -4.78

Question: Which “polymerase ribozyme fitness (log ratio)” value does the source give for A43G G93C G120A here?
Answer: -2.35

Question: For G45U G120U, which “polymerase ribozyme fitness (log ratio)” value is on record?
Answer: -0.652

Question: Which “polymerase ribozyme fitness (log ratio)” value does the source give for G45A G63A here?
Answer: -1.39

Question: For G45U G60A C82G C85G G117A, which “polymerase ribozyme fitness (log ratio)” value is on record?
Answer: -3.09

Question: For G45U C56U A121U, which “polymerase ribozyme fitness (log ratio)” value is on record?
Answer: 0.651

Question: Which “polymerase ribozyme fitness (log ratio)” value does the source give for G45U G69U A119U here?
Answer: -0.819

Question: Which “polymerase ribozyme fitness (log ratio)” value does the source give for G44U C62U G63C here?
Answer: -2.59

Question: Which “polymerase ribozyme fitness (log ratio)” value does the source give for A43U U87G here?
Answer: -1.43

Question: Which “polymerase ribozyme fitness (log ratio)” value does the source give for A46C C72G G135U here?
Answer: -2.4

Question: For G44U A121G, which “polymerase ribozyme fitness (log ratio)” value is on record?
Answer: 0.89

Question: With G44A C49U U54G C70A U112G as the variant, how does the “polymerase ribozyme fitness (log ratio)” value read?
Answer: -6.09

Question: Which “polymerase ribozyme fitness (log ratio)” value does the source give for A43G C72G U132A G135C here?
Answer: -2.2

Question: Which “polymerase ribozyme fitness (log ratio)” value does the source give for A43U C56G here?
Answer: -1.4

Question: Which “polymerase ribozyme fitness (log ratio)” value does the source give for G44U C72U A121U here?
Answer: 0.777

Question: For A43U C97A, which “polymerase ribozyme fitness (log ratio)” value is on record?
Answer: -7.59

Question: Which “polymerase ribozyme fitness (log ratio)” value does the source give for G44U G113C U130A here?
Answer: -2.45

Question: With G44U C82U U106G G120A as the variant, how does the “polymerase ribozyme fitness (log ratio)” value read?
Answer: -0.344

Question: For A46C G113A G128A, which “polymerase ribozyme fitness (log ratio)” value is on record?
Answer: -4.59

Question: For G45U C124G U133A, which “polymerase ribozyme fitness (log ratio)” value is on record?
Answer: 0.519

Question: For A43U U59G U96A A105U A121C, which “polymerase ribozyme fitness (log ratio)” value is on record?
Answer: -4.79

Question: With A46C U87A G110C as the variant, how does the “polymerase ribozyme fitness (log ratio)” value read?
Answer: -3.24

Question: Which “polymerase ribozyme fitness (log ratio)” value does the source give for G44A G60A U106G U112A here?
Answer: -1.83

Question: With G45U C53U A105U as the variant, how does the “polymerase ribozyme fitness (log ratio)” value read?
Answer: -3.69

Question: For G44U C53A G69C A105U, which “polymerase ribozyme fitness (log ratio)” value is on record?
Answer: -5.22

Question: For A43U C70G, which “polymerase ribozyme fitness (log ratio)” value is on record?
Answer: -4.41

Question: For G44A C49U U78G C101A, which “polymerase ribozyme fitness (log ratio)” value is on record?
Answer: -3.78

Question: With G44A G77C U78A G93A as the variant, how does the “polymerase ribozyme fitness (log ratio)” value read?
Answer: -1.9

Question: Which “polymerase ribozyme fitness (log ratio)” value does the source give for G44A C70U here?
Answer: -1.67

Question: For G44U G47A G63C G120U U130G, which “polymerase ribozyme fitness (log ratio)” value is on record?
Answer: -4.01

Question: With A43U G71A A91G as the variant, how does the “polymerase ribozyme fitness (log ratio)” value read?
Answer: -3.35

Question: For G44C C49U C114U, which “polymerase ribozyme fitness (log ratio)” value is on record?
Answer: -3.24

Question: For A46C C56A A91U C97U, which “polymerase ribozyme fitness (log ratio)” value is on record?
Answer: -3.95

Question: With G45A C80U C115A A121G as the variant, how does the “polymerase ribozyme fitness (log ratio)” value read?
Answer: 0.603

Question: For G45A C62U C115U U116C U126A G128C, which “polymerase ribozyme fitness (log ratio)” value is on record?
Answer: -5.86

Question: Which “polymerase ribozyme fitness (log ratio)” value does the source give for G44A G69C C102A G122A here?
Answer: -5.57

Question: For G44A A90G C104U, which “polymerase ribozyme fitness (log ratio)” value is on record?
Answer: -0.158

Reference: the RNAGym collection of RNA variant scans (doi:10.1073/pnas.2313332121)
